Assay results: paper PMC3565030

Biological target: T1, Eco1 phosphopeptide “94-98-99” (phosphates at Thr94, Ser98 and Ser99), FITC-conjugated (budding yeast)
T1 chain: GTITPLNSSPLKK
Assay: fluorescence polarisation

B1: Cdc4–Skp1 complex (His6-Cdc4-LP6DelA GST-Skp1), P07834 1-779; P52286 1-194 (complex)
chain 1: GTLIKDNLKRDLITSLPFEISLKIFNYLQFEDIINSLGVSQNWNKIIRKSTSLWKKLLISENFVSPKGFNSLNLKLSQKYPKLSQQDRLRLSFLENIFILKNWYNPKFVPQRTTLRGHMTSVITCLQFEDNYVITGADDKMIRVYDSINKKFLLQLSGHDGGVWALKYAHGGILVSGSTDRTVRVWDIKKGCCTHVFEGHNSTVRCLDIVEYKNIKYIVTGSRDNTLHVWKLPKESSVPDHGEEHDYPLVFHTPEENPYFVGVLRGHMASVRTVSGHGNIVVSGSYDNTLIVWDVAQMKCLYILSGHTDRIYSTIYDHERKRCISASMDTTIRIWDLENGELMYTLQGHTALVGLLRLSDKFLVSAAADGSIRGWDANDYSRKFSYHHTNLSAITTFYVSDNILVSGSENQFNIYNLRSGKLVHANILKDADQIWSVNFKGKTLVAAVEKDGQSFLEILDFS
chain 2: MVTSNVVLVSGEGERFTVDKKIAERSLLLKNYLNDMGDDDDEDDDEIVMPVPNVRSSVLQKVIEWAEHHRDSNFPDEDDDDSRKSAPVDSWDREFLKVDQEMLYEIILAANYLNIKPLLDAGCKVVAEMIRGRSPEEIRRTFNIVNDFTPEEEAAIRRENEWAEDR
modifications: not checked
**Q.** For B1, which Kd is on record?
**A.** 10.3 µM
